Sequences and labels used below:
B1: I-1631 (peptide)
peptide: Ac-[αAllylPro]D[tBuAla][B5(3)]D[(Me)GA″]AAFL[PyrS2″][3Thi][Bta]Q-NH2
modifications: staple 1-4, 4-11
B2: I-1638 (peptide)
peptide: Ac-[αAllylPro]D[tBuAla][B5(16)]D[(Pfbn)GA]AAFN[PyrS2][3Thi][Bta]Q-NH2
modifications: staple 1-4, 4-11
B3: I-1637 (peptide)
peptide: Ac-[αAllylPro]D[tBuAla][B5(16)]D[(Me)GA]AAFN[PyrS2(4)][3Thi][Bta]Q-NH2
modifications: staple 1-4, 4-11; not fully specified; printed as Ac-PL3-Asp-Npg-B5-Asp-[Me]GA-Ala-Ala-Phe-Asn-PyrS2-3Thi-BztA-Gln-NH2; reading uncertain
B4: I-1635 (peptide)
peptide: Ac-[αAllylPro]D[tBuAla][B5(3)]D[(Bn)GA]AAFN[PyrS2][3Thi][Bta]Q-NH2
modifications: staple 1-4, 4-11
B5: I-1634 (peptide)
peptide: Ac-[αAllylPro]D[tBuAla][B5(3)]D[(Tfb)GA]AAFN[PyrS2][3Thi][Bta]Q-NH2
modifications: staple 1-4, 4-11
B6: I-1622 (peptide)
peptide: Ac-[αAllylPro]D[tBuAla][B5(3)]D[(Et)GA]AAFN[PyrS2(4)][Phe(2-Cl)][Bta]Q-NH2
modifications: staple 1-4, 4-11; not fully specified; printed as Ac-PL3-Asp-Npg-B5-Asp-[Et]GA-Ala-Ala-Phe-Asn-PyrS2-2C1F-BztA-Gln-NH2; reading uncertain
B7: I-1625 (peptide)
peptide: Ac-[αAllylPro]D[tBuAla][B5(3)]D[(Tfp)GA]AAFN[S8][3Thi][Bta]Q-NH2
modifications: staple 1-4, 4-11
B8: I-1628 (peptide)
peptide: Ac-[αAllylPro]D[tBuAla][B5(3)]D[(Et)GA]AAFN[S8][3Thi][Bta]Q-NH2
modifications: staple 1-4, 4-11; also: later eluting staple isomer
B9: I-1624 (peptide)
peptide: Ac-[αAllylPro]D[tBuAla][B5(3)]D[(Pfbn)GA″]AAFN[S8][3Thi][Bta]Q-NH2
modifications: staple 1-4, 4-11
B10: I-1633 (peptide)
peptide: Ac-[αAllylPro]D[tBuAla][B5(3)]D[(Tfp)GA″]AAFL[PyrS2][3Thi][Bta]Q-NH2
modifications: staple 1-4, 4-11
B11: I-1627 (peptide)
peptide: Ac-[αAllylPro]D[tBuAla][B5(3)]D[(Et)GA]AAFN[S8][3Thi][Bta]Q-NH2
modifications: staple 1-4, 4-11; also: earlier eluting staple isomer
B12: I-1630 (peptide)
peptide: Ac-[αAllylPro]D[tBuAla][B5(3)]D[(Bn)GA″]AAFL[PyrS2″][3Thi][Bta]Q-NH2
modifications: staple 1-4, 4-11
B13: I-1623 (peptide)
peptide: Ac-[αAllylPro]D[tBuAla][B5(3)]D[(sBu)GA]AAFN[PyrS2″][Phe(2-Cl)][Bta]Q-NH2
modifications: staple 1-4, 4-11
B14: I-1636 (peptide)
peptide: Ac-[αAllylPro]D[tBuAla][B5(3)]D[(Me)GA]AAFN[PyrS2][3Thi][Bta]Q-NH2
modifications: staple 1-4, 4-11; also: earlier eluting staple isomer
B15: I-2248 (peptide)
peptide: Ac-[αAllylPro]D[tBuAla][B5(22)]D[(MeMorphBz)GAbu]AAFL[PyrS2][3Thi][Bta]Q-NH2
modifications: staple 1-4, 4-11
B16: I-2247 (peptide)
peptide: Ac-[αAllylPro]D[tBuAla][B5(22)]D[(Pic)GAbu]AAFL[PyrS2][3Thi][Bta]Q-NH2
modifications: staple 1-4, 4-11
B17: I-2245 (peptide)
peptide: Ac-[αAllylPro]D[tBuAla][B5(22)]D[(4AcMePip)GAbu]AAFL[PyrS2][3Thi][Bta]Q-NH2
modifications: staple 1-4, 4-11
B18: I-2246 (peptide)
peptide: Ac-[αAllylPro]D[tBuAla][B5(22)]D[(4CF3PhAc)GAbu]AAFL[PyrS2][3Thi][Bta]Q-NH2
modifications: staple 1-4, 4-11
B19: I-2244 (peptide)
peptide: Ac-[αAllylPro]D[tBuAla][B5(22)]D[(Me2NPr)GAbu]AAFL[PyrS2][3Thi][Bta]Q-NH2
modifications: staple 1-4, 4-11

Starred links: 1 amine or outer side, 2 acyl side, 3 side chain; linkers in the order of their positions; H or OH if unused. Positions of bridges follow the written chain, without caps; N, C: chain ends. Non-standard residues stand in square brackets, D forms with d. Primed or numbered codes have the meaning given here. (4CF3PhAc)GAbu = (S)-2-amino-4-(N-(carboxymethyl)-2-(4-(trifluoromethyl)phenyl)acetamido)butanoic acid, O=C(Cc1ccc(C(F)(F)F)cc1)N(CC[C@H](N[*:1])C(=O)[*:2])CC(=O)[*:3]; (MeMorphBz)GAbu = (S)-2-amino-4-(N-(carboxymethyl)-4-(morpholinomethyl)benzamido)butanoic acid, O=C(c1ccc(CN2CCOCC2)cc1)N(CC[C@H](N[*:1])C(=O)[*:2])CC(=O)[*:3]; (Pfbn)GA″ = [Pfbn]GA: (S)-2-amino-3-((carboxymethyl)((perfluorophenyl)methyl)amino)propanoic acid, O=C([C@H](CN(CC(=O)[*:3])Cc1c(F)c(F)c(F)c(F)c1F)N[*:1])[*:2]; (4AcMePip)GAbu = (S)-2-amino-4-(N-(carboxymethyl)-1-methylpiperidine-4-carboxamido)butanoic acid, CN1CCC(C(=O)N(CC[C@H](N[*:1])C(=O)[*:2])CC(=O)[*:3])CC1; (Pfbn)GA = (S)-2-amino-3-((carboxymethyl)((perfluorophenyl)methyl)amino)propanoic acid, O=C([C@H](CN(CC(=O)[*:3])Cc1c(F)c(F)c(F)c(F)c1F)N[*:1])[*:2]; PyrS2″ = (S)-3-amino-1-((pent-4-en-1-yloxy)carbonyl)pyrrolidine-3-carboxylic acid (stapling residue), C=CCCCOC(=O)N1CC[C@@](N[*:1])(C(=O)[*:2])C1; (Me2NPr)GAbu = (S)-2-amino-4-(N-(carboxymethyl)-3-(dimethylamino)propanamido)butanoic acid, CN(C)CCC(=O)N(CC[C@H](N[*:1])C(=O)[*:2])CC(=O)[*:3]; (Tfp)GA = [Tfp]GA: (S)-2-amino-3-((carboxymethyl)(3,3,3-trifluoropropyl)amino)propanoic acid, O=C([C@H](CN(CCC(F)(F)F)CC(=O)[*:3])N[*:1])[*:2]; B5(16) = 2-amino-2-(pent-4-en-1-yl)hept-6-enoic acid = 2,2-bis(4-pentenyl)glycine (stitching residue), C=CCCCC(CCCC=C)(N[*:1])C(=O)[*:2]; (Tfp)GA″ = (S)-2-amino-3-((carboxymethyl)(3,3,3-trifluoropropyl)amino)propanoic acid, O=C([C@H](CN(CCC(F)(F)F)CC(=O)[*:3])N[*:1])[*:2]; (Tfb)GA = (S)-2-amino-3-((carboxymethyl)(4,4,4-trifluorobutyl)amino)propanoic acid, O=C([C@H](CN(CCCC(F)(F)F)CC(=O)[*:3])N[*:1])[*:2]; (sBu)GA = [sBu]GA: (2S)-2-amino-3-(sec-butyl(carboxymethyl)amino)propanoic acid, CCC(C)N(CC(=O)[*:3])C[C@H](N[*:1])C(=O)[*:2]; PyrS2 = (S)-3-amino-1-((pent-4-en-1-yloxy)carbonyl)pyrrolidine-3-carboxylic acid, C=CCCCOC(=O)N1CC[C@@](N[*:1])(C(=O)[*:2])C1; (Pic)GAbu = (S)-2-amino-4-(N-(carboxymethyl)picolinamido)butanoic acid, O=C(c1ccccn1)N(CC[C@H](N[*:1])C(=O)[*:2])CC(=O)[*:3]; (Bn)GA″ = [Bn]GA: (S)-2-amino-3-(benzyl(carboxymethyl)amino)propanoic acid, O=C([C@H](CN(CC(=O)[*:3])Cc1ccccc1)N[*:1])[*:2]; (Me)GA″ = [Me]GA: (S)-2-amino-3-((carboxymethyl)(methyl)amino)propanoic acid, CN(CC(=O)[*:3])C[C@H](N[*:1])C(=O)[*:2]; (Et)GA = [Et]GA: (S)-2-amino-3-((carboxymethyl)(ethyl)amino)propanoic acid, CCN(CC(=O)[*:3])C[C@H](N[*:1])C(=O)[*:2]; (Bn)GA = (S)-2-amino-3-(benzyl(carboxymethyl)amino)propanoic acid, O=C([C@H](CN(CC(=O)[*:3])Cc1ccccc1)N[*:1])[*:2]; B5(22) = 2-amino-2-(pent-4-en-1-yl)hept-6-enoic acid (two alkene side chains), C=CCCCC(CCCC=C)(N[*:1])C(=O)[*:2]; (Me)GA = (S)-2-amino-3-((carboxymethyl)(methyl)amino)propanoic acid, CN(CC(=O)[*:3])C[C@H](N[*:1])C(=O)[*:2]; B5(3) = 2,2-bis(4-pentenyl)glycine (stitching residue), C=CCCCC(CCCC=C)(N[*:1])C(=O)[*:2]; Phe(2-Cl) = N[C@@H](Cc1ccccc1Cl)C(=O)O; Bta = N[C@@H](Cc1csc2ccccc12)C(=O)O; αAllylPro = C=CC[C@@]1(C(=O)O)CCCN1; tBuAla = CC(C)(C)C[C@H](N)C(=O)O; 3Thi = N[C@@H](Cc1ccsc1)C(=O)O; S8 = C=CCCCCCC[C@](C)(N)C(=O)O; PyrS2(4) = not defined here

One assay concerns the target T1, B-cat-Halo (UniProt P35222 1-781).
T1 sequence (looked up): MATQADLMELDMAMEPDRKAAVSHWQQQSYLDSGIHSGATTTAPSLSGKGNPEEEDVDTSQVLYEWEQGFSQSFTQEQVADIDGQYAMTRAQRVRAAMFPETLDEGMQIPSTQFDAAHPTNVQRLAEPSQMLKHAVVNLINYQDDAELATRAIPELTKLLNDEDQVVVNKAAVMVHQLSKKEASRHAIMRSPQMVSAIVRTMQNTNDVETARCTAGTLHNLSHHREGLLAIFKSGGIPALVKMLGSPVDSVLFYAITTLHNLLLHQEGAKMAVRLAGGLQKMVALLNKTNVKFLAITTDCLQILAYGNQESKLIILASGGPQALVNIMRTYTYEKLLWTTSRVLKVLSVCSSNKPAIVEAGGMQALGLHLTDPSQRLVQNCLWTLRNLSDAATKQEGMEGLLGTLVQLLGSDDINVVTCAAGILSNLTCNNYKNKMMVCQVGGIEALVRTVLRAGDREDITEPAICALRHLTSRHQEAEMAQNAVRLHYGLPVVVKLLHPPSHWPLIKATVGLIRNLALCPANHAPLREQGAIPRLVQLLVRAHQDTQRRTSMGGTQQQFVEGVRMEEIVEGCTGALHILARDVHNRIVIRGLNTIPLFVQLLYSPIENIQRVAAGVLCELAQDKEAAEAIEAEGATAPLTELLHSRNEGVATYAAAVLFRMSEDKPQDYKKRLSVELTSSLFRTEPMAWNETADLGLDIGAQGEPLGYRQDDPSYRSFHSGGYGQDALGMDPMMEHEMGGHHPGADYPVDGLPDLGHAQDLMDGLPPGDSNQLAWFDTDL
In words: cell-based or functional assay.
In the case of B1, the “NanoBRET Abs IC50” value was 30.1 µM.

Regarding B2, the “NanoBRET Abs IC50” value is 14.5 µM.

On to B3, for which the “NanoBRET Abs IC50” value was greater than 20 µM.

As for B4, the “NanoBRET Abs IC50” value stood at 20.6 µM.

As to B5, the “NanoBRET Abs IC50” value turned out to be 16.5 µM.

For the molecule B6, the “NanoBRET Abs IC50” value was greater than 20 µM.

Consider B7, for which the “NanoBRET Abs IC50” value was determined as 29.3 µM.

As to B8, the “NanoBRET Abs IC50” value is greater than 20 µM.

With B9, the “NanoBRET Abs IC50” value is 42.9 µM.

B10: the “NanoBRET Abs IC50” value is 5.2 µM.

Regarding B11, the “NanoBRET Abs IC50” value was greater than 20 µM.

For B12, the “NanoBRET Abs IC50” value was 5 µM.

B13: the “NanoBRET Abs IC50” value came to 27.7 µM.

As for B14, the “NanoBRET Abs IC50” value is greater than 20 µM.

In a further assay the target is T2, B-cat-Halo (UniProt P35222 1-781).
T2 sequence (looked up): T1 sequence (looked up)
In words: cell-based or functional assay.
B15: the “NanoBRET Abs IC50” value was 21.5 µM.

Consider B16, for which the “NanoBRET Abs IC50” value came to 5.9 µM.

For the molecule B17, the “NanoBRET Abs IC50” value is greater than 20 µM.

As to B18, the “NanoBRET Abs IC50” value turned out to be 12.9 µM.

Take B19: the “NanoBRET Abs IC50” value came to 27.4 µM.

Source of the values: US20240116985A1 (published 2024).
